Where a chain is given by its changes, count along the chain named. Numbers in names are those of the source.
B1: canine IgGB (65) mAb with mutation A426V (antibody, part only; not given: Variable domains, not shown: another chain or arm of the molecule)
constant: ASTTAPSVFPLAPSCGSTSGSTVALACLVSGYFPEPVTVSWNSGSLTSGVHTFPSVLQSSGLYSLSSMVTVPSSRWPSETFTCNVAHPASKTKVDKPVPKRENGRVPRPPDCPKCPAPEMLGGPSVFIFPPKPKDTLLIARTPEVTCVVVDLDPEDPEVQISWFVDGKQMQTAKTQPREEQFNGTYRVVSVLPIGHQDWLKGKQFTCKVNNKALPSPIERTISKARGQAHQPSVYVLPPSREELSKNTVSLTCLIKDFFPPDIDVEWQSNGQQEPESKYRTTPPQLDEDGSYFLYSKLSVDKSRWQRGDTFICVVMHEALHNHYTQESLSHSPGK
B2: canine IgGB (65) mAb with mutation Y436W (antibody, part only; not given: variable domains of unnamed mAb, not shown: another chain or arm of the molecule)
constant: B1 constant with V314A, Y324W
B3: canine IgGB (65) mAb with mutation Y436D (antibody, part only; not given: Variable domains, not shown: another chain or arm of the molecule)
constant: B1 constant with V314A, Y324D
B4: canine IgGB (65) mAb with mutation Y436P (antibody, part only; not given: variable domains of unnamed mAb, not shown: another chain or arm of the molecule)
constant: B1 constant with V314A, Y324P
B5: canine IgGB (65) mAb with mutation Y436N (antibody, part only; not given: variable domains of unnamed mAb, not shown: another chain or arm of the molecule)
constant: B1 constant with V314A, Y324N
B6: canine IgGB (65) mAb with mutation Y436S (antibody, part only; not given: variable domains of unnamed mAb, not shown: another chain or arm of the molecule)
constant: B1 constant with V314A, Y324S
B7: canine IgGB (65) mAb with mutation A426W (antibody, part only; not given: variable domains of unnamed mAb, not shown: another chain or arm of the molecule)
constant: B1 constant with V314W
B8: canine IgGB (65) mAb with mutation Y436F (antibody, part only; not given: Variable domains, not shown: another chain or arm of the molecule)
constant: B1 constant with V314A, Y324F
B9: canine IgGB (65) mAb with mutation Y436C (antibody, part only; not given: Variable domains, not shown: another chain or arm of the molecule)
constant: B1 constant with V314A, Y324C
B10: canine IgGB (65) mAb with mutation Y436E (antibody, part only; not given: Variable domains, not shown: another chain or arm of the molecule)
constant: B1 constant with V314A, Y324E
B11: canine IgGB (65) mAb with mutation Y436M (antibody, part only; not given: Variable domains, not shown: another chain or arm of the molecule)
constant: B1 constant with V314A, Y324M
B12: canine IgGB (65) mAb with mutation T286I (antibody, part only; not given: Variable domains, not shown: another chain or arm of the molecule)
constant: B1 constant with T172I, V314A
B13: canine IgGB (65) mAb with mutation T286K (antibody, part only; not given: Variable domains, not shown: another chain or arm of the molecule)
constant: B1 constant with T172K, V314A
B14: canine IgGB (65) mAb with mutation Y436V (antibody, part only; not given: variable domains of unnamed mAb, not shown: another chain or arm of the molecule)
constant: B1 constant with V314A, Y324V
B15: canine IgGB (65) mAb with mutation Y436Q (antibody, part only; not given: Variable domains, not shown: another chain or arm of the molecule)
constant: B1 constant with V314A, Y324Q
B16: canine IgGB (65) mAb with mutation Y436T (antibody, part only; not given: Variable domains, not shown: another chain or arm of the molecule)
constant: B1 constant with V314A, Y324T
B17: canine IgGB (65) mAb with mutation Y436G (antibody, part only; not given: Variable domains, not shown: another chain or arm of the molecule)
constant: B1 constant with V314A, Y324G
B18: canine IgGB (65) mAb with mutation T286M (antibody, part only; not given: variable domains of unnamed mAb, not shown: another chain or arm of the molecule)
constant: B1 constant with T172M, V314A
B19: canine IgGB (65) mAb with mutation Y436L (antibody, part only; not given: variable domains of unnamed mAb, not shown: another chain or arm of the molecule)
constant: B1 constant with V314A, Y324L
B20: canine IgGB (65) mAb with mutation Y436I (antibody, part only; not given: variable domains of unnamed mAb, not shown: another chain or arm of the molecule)
constant: B1 constant with V314A, Y324I
B21: canine IgGB (65) mAb with mutation Y436K (antibody, part only; not given: variable domains of unnamed mAb, not shown: another chain or arm of the molecule)
constant: B1 constant with V314A, Y324K
B22: canine IgGB (65) mAb with mutation Y436R (antibody, part only; not given: Variable domains, not shown: another chain or arm of the molecule)
constant: B1 constant with V314A, Y324R

Target: canine FcRn complex (FcRn-alpha subunit and beta-microglobulin), His-tagged, biotin labeled (canine)
Test: SPR (Biacore), biotin-FcRn captured on SA surface, IgG flowed over, pH 6, 15 C

First: B1
Second: B2
The Kd of the first is 2.4-fold higher: 9.11 nM for the first, 3.87 nM for the second. The second binds more tightly here.

First: B3
Second: B4
The Kd of the first is 52-fold lower: 12.9 nM for the first, 668 nM for the second.

B5 and B6 are within 1.5-fold of each other in Kd: 7.27 nM for the first, 5.97 nM for the second.

Compared with B7, B8 is 2.5-fold higher in Kd: 3.87 nM for the first, 9.8 nM for the second. The first binds more tightly here.

Going from B9 to B10, the Kd falls from 8.84 nM to 5.28 nM (1.7-fold). The second binds more tightly here.

B11 and B12 are within 1.5-fold of each other in Kd: 9.51 nM for the first, 6.38 nM for the second.

B13 and B14 are within 1.5-fold of each other in Kd: 7.04 nM for the first, 5.56 nM for the second.

Going from B15 to B16, the Kd rises from 4.74 nM to 8.65 nM (1.8-fold). The first binds more tightly here.

First: B17
Second: B18
The Kd of the first is 1.8-fold higher: 9.67 nM for the first, 5.23 nM for the second.

First: B19
Second: B20
The Kd of the first is 2-fold lower: 4.26 nM for the first, 8.41 nM for the second.

Going from B21 to B22, the Kd falls from 6.88 nM to 3.83 nM (1.8-fold).
